Measurements from PMC8913699, “Overall structure of fully assembled cyanobacterial KaiABC circadian clock complex by an integrated experimental-computational approach” (Communications Biology, 2022).

B1: phosphorylation mimic KaiC (S431 substituted with aspartate) from Synechococcus sp. PCC 7942 (natural protein)
chain: MTSAEMTSPNNNSEHQAIAKMRTMIEGFDDISHGGLPIGRSTLVSGTSGTGKTLFSIQFLYNGIIEFDEPGVFVTFEETPQDIIKNARSFGWDLAKLVDEGKLFILDASPDPEGQEVVGGFDLSALIERINYAIQKYRARRVSIDSVTSVFQQYDASSVVRRELFRLVARLKQIGATTVMTTERIEEYGPIARYGVEEFVSDNVVILRNVLEGERRRRTLEILKLRGTSHMKGEYPFTITDHGINIFPLGAMRLTQRSSNVRVSSGVVRLDEMCGGGFFKDSIILATGATGTGKTLLVSRFVENACANKERAILFAYEESRAQLLRNAYSWGMDFEEMERQNLLKIVCAYPESAGLEDHLQIIKSEINDFKPARIAIDSLSALARGVSNNAFRQFVIGVTGYAKQEEITGLFTNTSDQFMGAHSITDSHIDTITDTIILLQYVEIRGEMSRAINVFKMRGSWHDKAIREFMISDKGPDIKDSFRNFERIISGSPTRITVDEKSELSRIVRGVQEKGPES
notes: KaiC, Synechococcus sp; PCC 7942, phosphorylation mimic with S431 replaced by aspartate; A 75%-deuterated form (dC) was used in the iCM-SANS sample; Buffer contained 1 mM ATP and 5 mM MgCl2; also called C6 (homohexamer); hC; source: E. coli, purified as a Strep-tagged recombinant protein
B2: KaiA from Synechococcus sp. PCC 7942 (natural protein)
chain: LSQIAICIWVESTAILQDCQRALSADRYQLQVCESGEMLLEYAQTHRDQIDCLILVAANPSFRAVVQQLCFEGVVVPAIVVGDRDSEDPDEPAKEQLYHSAELHLGIHQLEQLPYQVDAALAEFLRLAPVETMADHIMLMGANHDPELSSQQRDLAQRLQERLGYLGVYYKRDPDRFLRNLPAYESQKLHQAMQTSYREIVLSYFSPNSNLNQSIDNFVNMAFFADVPVTKVVEIHMELMDEFAKKLRVEGRSEDILLDYRLTLIDVIAHLCEMYRRSIPRET
notes: KaiA, Synechococcus sp; PCC 7942; Both N- and C-terminal domains were present in the sample, since the study locates the N-terminal domains, so it was probably whole KaiA; Hydrogenated in all samples; also called A2 (homodimer); hA (hydrogenated KaiA); source: E. coli, purified after cleavage of the his-tag
B3: KaiB from Synechococcus sp. PCC 7942 (natural protein, UniProt Q79PF5 1-102, looked up)
chain: MSPRKTYILKLYVAGNTPNSVRALKTLKNILEVEFQGVYALKVIDVLKNPQLAEEDKILATPTLAKVLPLPVRRIIGDLSDREKVLIGLDLLYGELQDSDDF
notes: KaiB, Synechococcus sp; PCC 7942; A 75%-deuterated form (dB) was used in the iCM-SANS sample; also called B4 (homotetramer); hB; source: E. coli, purified after cleavage of the GST-tag

Legend:
[1] = biological target: the molecule itself; assay: AUC; sedimentation velocity, Rayleigh interference optics, 60,000 rpm, 30 °C; ternary KaiA-KaiB-KaiC mixture 1.0 mg/mL (KaiA added in excess to SEC-purified B6C6, final 24:12:6); hydrogenated proteins in H2O buffer: 20 mM Tris-HCl pH 8.0, 150 mM NaCl, 5 mM MgCl2, 0.5 mM EDTA, 1 mM DTT, 1 mM ATP
[2] = biological target: T1, B6C6 complex (KaiB-KaiC complex formed beforehand and isolated by SEC) (Synechococcus sp. PCC 7942, UniProt Q79PF5 1-102; Q79PF4 1-519, S431 substituted with an aspartate residue); assay: as above; conditions: both partners purified
T1 construct: KaiB, Synechococcus sp; PCC 7942, as m2; KaiC, Synechococcus sp; PCC 7942, phosphorylation mimic with S431 replaced by aspartate, as m3; Oversaturating KaiA was added to this purified complex; the final molar ratio [KaiA]:[KaiB]:[KaiC] was 24:12:6; In the iCM-SANS sample both chains were 75%-deuterated; also called BC complex; B6C6 subcomplex; source: E. coli proteins, purified; KaiB and KaiC …
T1 sequence 1: B3 chain
T1 sequence 2: B1 chain

[3] = biological target: the molecule itself; assay: AUC-SAXS; KaiA alone, 1.0 mg/mL, 25 °C; SV-AUC at 60,000 rpm with laboratory SAXS (NANOPIX); experimental profile compared with the crystal dimer and with simulated dimers
[4] = biological target: B2; assay: AUC; sedimentation velocity, Rayleigh interference optics, 60,000 rpm, 30 °C; ternary KaiA-KaiB-KaiC mixture 1.0 mg/mL (KaiA added in excess to SEC-purified B6C6, final 24:12:6); hydrogenated proteins in H2O buffer: 20 mM Tris-HCl pH 8.0, 150 mM NaCl, 5 mM MgCl2, 0.5 mM EDTA, 1 mM DTT, 1 mM ATP; conditions: both partners purified
[5] = biological target: B1; assay: SEC; KaiB and KaiC mixed 9:6 in 20 mM Tris-HCl pH 8.0, 150 mM NaCl, 5 mM MgCl2, 0.5 mM EDTA, 1 mM DTT, 1 mM ATP at 10 °C; complex isolated with SEC; conditions: both partners purified

B1 was tested, and the “stoichiometry N” value [1] was 6.

For B2, the “stoichiometry N” value [2] was 12 KaiA protomers per B6C6 complex and the “stoichiometry N” value [3] was 2.

B3: binds [4]; binds [5].
